Assay results taken from patent US20100285988A1.
Like-named read-outs stand apart in the source and are kept apart here.

Tests used:
[1] = target: T1, γ-secretase (human; HeLa cell membrane / solubilized HeLa membrane; endogenous in HEK293 cells) (human), P49768; conditions: modification not given
[2] = target: T1, γ-secretase (human; HeLa cell membrane …); conditions: modification not given; remark: listed apart in the source

Binder	IC50 [1] [µM]	IC50 [2] [µM]
KLVFFAED	14	–
LVFFAEDV	–	8.9
